The target in this assay is T1, recombinant CD277 (human, UniProt O00481 30-254, limits assumed).
T1 construct: It gives no isoform (BTN3A1, A2 or A3), construct limits or supplier; also called BTN3A; Butyrophilin 3 family member BTN3A
The assay can be described thus: SPR (Biacore), recombinant CD277 amine-coupled to CM5 chip, antibody as analyte, 1:1 Langmuir fit. How it is done:
SPR assay was performed according to the state of the art. In short, recombinant CD277 was immobilized to the surface of a Biacore CM5 optical sensor chip by covalent EDC/NHS coupling following the Biacore amine coupling kit protocol. Antibody samples were applied as analytes in serial dilution allowing standardized comparison of all antibodies binding to the identical target molecule surface. Kinetic analysis data are based on 1:1 Langmuir curve fitting model and mean Langmuir on-rates, off-rates and KD values: see table 5.
(Surface plasmon resonance follows binding to a sensor surface in real time, without labels.)

This passage reports Kd results from patent US20250163157A1 (Boehringer Ingelheim, published 2025).

Residue numbers refer to the chain shown, from its start. Names may count otherwise.

One may read the Kd as the free concentration of one partner at which half of the binding sites on the other are occupied at equilibrium, for simple one-to-one binding.

T1 sequence (O00481 30-254 limits assumed): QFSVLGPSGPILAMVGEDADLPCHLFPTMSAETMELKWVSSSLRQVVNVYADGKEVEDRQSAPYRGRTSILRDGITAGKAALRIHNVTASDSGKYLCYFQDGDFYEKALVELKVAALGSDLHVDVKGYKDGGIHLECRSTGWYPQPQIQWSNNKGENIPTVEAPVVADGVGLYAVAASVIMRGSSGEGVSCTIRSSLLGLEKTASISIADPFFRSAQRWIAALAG

B1: reference antibody (full-length bivalent, monospecific, agonistic anti-CD277 antibody; heavy chain of SEQ ID NO:94, light chain of SEQ ID NO:93) (antibody, human IgG1, kappa, L234A L235A, V domains shown)
VH: QVQLQQSGAELVKPGASVKLSCKASGYTFTRYYLYWVKQRPGQGLEWIGEINPNNGGTKFNEKFKSKATLTVDKSSRTTYIQLSSLTSEDSAVYYCSREDDYDGTPDAMDYWGQGTAVTVSS
VL: DIQMNQSPSSLSASLGDTITITCHASQNINLWLSWYQQRPGNIPKLLIYRASNLHTGVPSRFSGSGSATGFTLTISSLQPEDIATYYCQQGHSYPYTFGGGTKLDIKR
notes: also called parent antibody
B1: the dissociation constant (Kd) is 2.8 nM.

B2: Antibody 47 (anti-CD277; VL parent, VH CDR2 N185S, K190N) (antibody, V domains shown)
VH: B1 VH with N54S, K59N
VL: DIQMNQSPSSLSASLGDTITITCHASQNINLWLSWYQQRPGNIPKLLIYRASNLHTGVPSRFSGSGSATGFTLTISSLQPEDIATYYCQQGHSYPYTFGGGTKLDIK
notes: also called EvB#47; EvB#23
For the molecule B2, the Kd stood at 26.3 nM.

B3: Antibody 52 (anti-CD277; VL CDR1 L31V, VH CDR2 N185S, K190N) (antibody, V domains shown)
VH: B1 VH with N54S, K59N
VL: B2 VL with L31V
notes: Its constructs use human IgG1 with L234A/L235A and human kappa; also called EvB#52; EvB#29
Regarding B3, the Kd was found to be 13.9 nM.
